Test results from patent publication US20060063231, “Compositions and methods for protein production” (Sangamo BioSciences, Inc., published 2006).

Target: 2392/10 ZFP-VP16 fusion (Artificial Sequence)
Assay: cell_activity; Epo secretion, 2392/10-7 CHO cells; additional three-fold over CMV promoter
Source text: Three different erythropoietin (Epo)-expressing constructs were constructed. In the first, Epo expression was controlled by a CMV promoter fused to a β-globin intron (CMV). In the second, Epo expression was controlled by a CMV promoter containing ten upstream copies of the 2392/10 binding site, fused to a β-globin intron (CMVz10, Example 6). In the third, Epo expression was controlled by a SRα promoter with six additional copies of the 2392/10 binding site immediately upstream of the promoter (SRαZ6, Example 5). The three constructs were transiently transfected into either parental DG44 CHO cells or the ZFP-expressing 2392/10-7 cell line. After 24 hours, Epo secretion was measured by ELISA.

B1: CMVz10 promoter target-site insert (dsDNA)
DNA 1: ACGCGTTCATTCCACAGCTCTCATTCCACAGCTCTCATTCCACAGCTCTCATTCCACAGCTCTCATTCCACAGCTCTCATTCCACAGCTCTCATTCCACAGCTCTCATTCCACAGCTCTCATTCCACAGCTCTCATTCCACAGTCACGCGT
DNA 2: ACGCGTGACTGTGGAATGAGAGCTGTGGAATGAGAGCTGTGGAATGAGAGCTGTGGAATGAGAGCTGTGGAATGAGAGCTGTGGAATGAGAGCTGTGGAATGAGAGCTGTGGAATGAGAGCTGTGGAATGAGAGCTGTGGAATGAACGCGT
- activity: 3 fold activation
